This is an account of results in US20150139990A1 (DAINIPPON SUMITOMO PHARMA, published 2015).

The chains are these.
T1: human CD81 mutant V135A (human, UniProt P60033 1-236, limits assumed)
T1 construct: as m30; not shown: C-terminal V5 and 6xHis tags
T1 sequence: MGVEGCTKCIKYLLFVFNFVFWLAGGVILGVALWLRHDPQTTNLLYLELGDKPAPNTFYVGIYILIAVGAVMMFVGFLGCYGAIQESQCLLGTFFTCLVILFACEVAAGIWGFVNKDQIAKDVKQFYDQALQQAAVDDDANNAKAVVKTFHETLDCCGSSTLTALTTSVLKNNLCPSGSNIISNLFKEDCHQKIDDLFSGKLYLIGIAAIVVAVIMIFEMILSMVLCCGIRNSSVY

T2: human CD81 mutant D137A (human, UniProt P60033 1-236, limits assumed)
T2 construct: as m30; not shown: C-terminal V5 and 6xHis tags
T2 sequence: T1 sequence with A135V, D137A

T3: human CD81 mutant G158S (human, UniProt P60033 1-236, limits assumed)
T3 construct: as m30; not shown: C-terminal V5 and 6xHis tags
T3 sequence: T1 sequence with A135V, G158S

T4: human CD81 mutant A164T (human, UniProt P60033 1-236, limits assumed)
T4 construct: as m30; not shown: C-terminal V5 and 6xHis tags
T4 sequence: T1 sequence with A135V, A164T

T5: human CD81 mutant L165A (human, UniProt P60033 1-236, limits assumed)
T5 construct: as m30; not shown: C-terminal V5 and 6xHis tags
T5 sequence: T1 sequence with A135V, L165A

T6: human CD81 mutant V169A (human, UniProt P60033 1-236, limits assumed)
T6 construct: as m30; not shown: C-terminal V5 and 6xHis tags
T6 sequence: T1 sequence with A135V, V169A

T7: human CD81 mutant I194A (human, UniProt P60033 1-236, limits assumed)
T7 construct: as m30; not shown: C-terminal V5 and 6xHis tags
T7 sequence: T1 sequence with A135V, I194A

T8: human CD81 mutant V135L (human, UniProt P60033 1-236, limits assumed)
T8 construct: as m30; not shown: C-terminal V5 and 6xHis tags
T8 sequence: T1 sequence with A135L

T9: human CD81 mutant H151R (human, UniProt P60033 1-236, limits assumed)
T9 construct: as m30; also called H151B; not shown: C-terminal V5 and 6xHis tags
T9 sequence: T1 sequence with A135V, H151R

T10: human CD81 mutant A164V (human, UniProt P60033 1-236, limits assumed)
T10 construct: as m30; not shown: C-terminal V5 and 6xHis tags
T10 sequence: T1 sequence with A135V, A164V

T11: human CD81 mutant S168T (human, UniProt P60033 1-236, limits assumed)
T11 construct: as m30; not shown: C-terminal V5 and 6xHis tags
T11 sequence: T1 sequence with A135V, S168T

T12: human CD81 mutant V169L (human, UniProt P60033 1-236, limits assumed)
T12 construct: as m30; not shown: C-terminal V5 and 6xHis tags
T12 sequence: T1 sequence with A135V, V169L

T13: human CD81 on CD81-expressing cells (Jurkat E6.1, human PBMC, Ramos) (human, UniProt P60033 1-236)
T13 sequence: T1 sequence with A135V

B1: 002-A07 S115N (antibody, human IgG4 S228P, lambda, V domains shown)
VH: EVQLLESGGGLVQPGGSLRLSCAASGFTFSSNYMSWVRQAPGKGLEWVSYISSSSTYTDYADSVKGRFTISRDNSKNTLYLQMNSLRAEDTAVYYCARYSYGRDNFDYWGQGTLVTVSS
VL: QSVLTQPPSASGTPGQRVTISCTGSTSNIGAGYDTHWYQQLPGTAPKLLIYGNSNRPSGVPDRFSGSKSGTSASLAISGLRSEDEADYYCQSYDTNLNVWVFGGGTKLTVLG
notes: IgG4 S228P; glycosylation site mutant of 002-A07 VL
B2: 003-A11 (antibody, human IgG4 S228P, lambda, V domains shown)
VH: B1 VH with S30G
VL: B1 VL with N98S, V99G
notes: IgG4 S228P
B3: 002-F07 (antibody, human IgG4 S228P, lambda, V domains shown)
VH: B1 VH with N105S
VL: B1 VL with P8F, Y33F, S72T, N98S
notes: IgG4 S228P
B4: 002-B05 (antibody, human IgG4 S228P, lambda, V domains shown)
VH: B1 VH with G102S
VL: B1 VL with D34G, Q40R, N98S
notes: IgG4 S228P

Numbering of substitutions follows the chain as printed. In names and notes the source's numbering stands.

One assay concerns the target T1, human CD81 mutant V135A. Put plainly: ELISA.
With B1, the relative binding affinity is < 20%.
B2: the relative binding affinity was < 20%.
As to B3, the relative binding affinity was < 20%.
For B4, the relative binding affinity was < 20%.

A further assay deals with T2, human CD81 mutant D137A. Put plainly: ELISA.
For the molecule B4, the relative binding affinity is < 20%.

In a further assay the target is T3, human CD81 mutant G158S. Put plainly: ELISA.
With B4, the relative binding affinity is < 20%.

The next assay deals with T4, human CD81 mutant A164T. Put plainly: ELISA.
Take B1: the relative binding affinity is < 20%.
The same measure, in the same setting: the figure for B2 is < 20%; for B3 it is < 20%; for B4 it is < 20%.

For a further assay, the target named is T5, human CD81 mutant L165A. Put plainly: ELISA.
For B1, the relative binding affinity is < 20%.
On the same count and under the same terms, the figure for B2 is < 20%.
The same measure, in the same setting: the figure for B3 is < 20%; for B4 it is < 20%.

Another assay concerns the target T6, human CD81 mutant V169A. Put plainly: ELISA.
As to B1, the relative binding affinity was < 20%.
Regarding B2, the relative binding affinity is < 20%.
Still for that read-out and setting: in the case of B3 it was < 20%; in that of B4, < 20%.

A further assay addresses T7, human CD81 mutant I194A. Put plainly: ELISA.
For the molecule B2, the relative binding affinity is < 20%.
In the case of B3, the relative binding affinity is < 20%.

For a further assay, the target named is T8, human CD81 mutant V135L. Description: ELISA.
As for B4, the relative binding affinity is < 20%.

Another assay has as its target T9, human CD81 mutant H151R. Description: ELISA.
Turning to B4, the relative binding affinity is < 20%.

A further assay deals with T10, human CD81 mutant A164V. Description: ELISA.
As to B1, the relative binding affinity is < 20%.
Consider B2, for which the relative binding affinity is < 20%.
Consider B3, for which the relative binding affinity is < 20%.
On the same count and under the same terms, the figure for B4 is < 20%.

A further assay addresses T11, human CD81 mutant S168T. Description: ELISA.
B1: the relative binding affinity was < 20%.

The next assay addresses T12, human CD81 mutant V169L. Put plainly: ELISA.
With B1, the relative binding affinity was < 20%.
B2: the relative binding affinity was < 20%.
With B3, the relative binding affinity was < 20%.
Turning to B4, the relative binding affinity is < 20%.

A further assay has as its target T13, human CD81 on CD81-expressing cells …. Description: cell-based or functional assay.
Turning to B1, the “Jurkat chemotaxis (% of control IgG4) at 0.001 µg/mL” value turned out to be 79%, the “Jurkat chemotaxis (% of control IgG4) at 0.01 µg/mL” value was determined as 69%, the “Jurkat chemotaxis (% of control IgG4) at 0.1 µg/mL” value is -4% and the “Jurkat chemotaxis (% of control IgG4) at 1 µg/mL” value is -11%. Further, the “Jurkat chemotaxis (% of control IgG4) at 10 µg/mL” value is -9%.
For B2, the “Jurkat chemotaxis (% of control IgG4) at 0.001 µg/mL” value was found to be 91%, the “Jurkat chemotaxis (% of control IgG4) at 0.01 µg/mL” value was determined as 86%, the “Jurkat chemotaxis (% of control IgG4) at 0.1 µg/mL” value worked out at 16% and the “Jurkat chemotaxis (% of control IgG4) at 1 µg/mL” value was 1%. Besides, the “Jurkat chemotaxis (% of control IgG4) at 10 µg/mL” value came to 2%.
As to B3, the “Jurkat chemotaxis (% of control IgG4) at 0.001 µg/mL” value came to 101%, the “Jurkat chemotaxis (% of control IgG4) at 0.01 µg/mL” value came out at 88%, the “Jurkat chemotaxis (% of control IgG4) at 0.1 µg/mL” value stood at 38% and the “Jurkat chemotaxis (% of control IgG4) at 1 µg/mL” value was found to be 13%. For the same molecule, the “Jurkat chemotaxis (% of control IgG4) at 10 µg/mL” value was determined as 15%.
The like results for B4 were, in that order, 84%, 78%, 10%, -1% and -10%.
